From the Human Domainome abundance scans (Beltran et al. 2025)
± gives the uncertainty stated by the source.

B1: Segment polarity protein dishevelled homolog DVL-3, residues 2 to 81; numbered along this chain, Q92997 (parent)
chain: GETKIIYHLDGQETPYLVKLPLPAERVTLADFKGVLQRPSYKFFFKSMDDDFGVVKEEISDDNAKLPCFNGRVVSWLVSA

Variants of: B1
Assay: abundance fitness (aPCA) (normalised: wild type 0, dead -1); higher = more abundant; growth selection in yeast, the domain comes from the species named
Details: Homo sapiens

Row | Variant | abundance fitness
1 | GETKIIYHLDGQETPYLVKLPLPAERVTLADFKGVLQRPSYKFFFHSMDDDFGVVKEEISDDNAKLPCFNGRVVSWLVSA [K46H] | -0.132 ± 0.12
2 | GETKIIYHLDGQETPYLVKLPLPAERVTLADFKGVLQRPSYKFFFKHMDDDFGVVKEEISDDNAKLPCFNGRVVSWLVSA [S47H] | -0.207 ± 0.11
3 | GETKIIYHLDGQETPYLVKLPLPAERVTLADFKGVLQRPSYKFFFKFMDDDFGVVKEEISDDNAKLPCFNGRVVSWLVSA [S47F] | 0.011 ± 0.084
4 | GETKIIYHLDGQETPYLVKLPLPAERVTLADFKGVLQRPSYKFFFKWMDDDFGVVKEEISDDNAKLPCFNGRVVSWLVSA [S47W] | -0.519 ± 0.082
5 | GETKIIYHLDGQETPYLVKLPLPAERVTLADFKGVLQRPSYKFFFKCMDDDFGVVKEEISDDNAKLPCFNGRVVSWLVSA [S47C] | 0.251 ± 0.065
6 | GETKIIYHLDGQETPYLVKLPLPAERVTLADFKGVLQRPSYKFFFKGMDDDFGVVKEEISDDNAKLPCFNGRVVSWLVSA [S47G] | -0.336 ± 0.054
7 | GETKIIYHLDGQETPYLVKLPLPAERVTLADFKGVLQRPSYKFFFKLMDDDFGVVKEEISDDNAKLPCFNGRVVSWLVSA [S47L] | 0.024 ± 0.05
8 | GETKIIYHLDGQETPYLVKLPLPAERVTLADFKGVLQRPSYKFFFKDMDDDFGVVKEEISDDNAKLPCFNGRVVSWLVSA [S47D] | -0.658 ± 0.15
9 | GETKIIYHLDGQETPYLVKLPLPAERVTLADFKGVLQRPSYKFFFKKMDDDFGVVKEEISDDNAKLPCFNGRVVSWLVSA [S47K] | 0.324 ± 0.06
10 | GETKIIYHLDGQETPYLVKLPLPAERVTLADFKGVLQRPSYKFFFKIMDDDFGVVKEEISDDNAKLPCFNGRVVSWLVSA [S47I] | 0.336 ± 0.075
11 | GETKIIYHLDGQETPYLVKLPLPAERVTLADFKGVLQRPSYKFFFKVMDDDFGVVKEEISDDNAKLPCFNGRVVSWLVSA [S47V] | 0.269 ± 0.041
12 | GETKIIYHLDGQETPYLVKLPLPAERVTLADFKGVLQRPSYKFFFKMMDDDFGVVKEEISDDNAKLPCFNGRVVSWLVSA [S47M] | 0.415 ± 0.054
13 | GETKIIYHLDGQETPYLVKLPLPAERVTLADFKGVLQRPSYKFFFKTMDDDFGVVKEEISDDNAKLPCFNGRVVSWLVSA [S47T] | 0.325 ± 0.057
14 | GETKIIYHLDGQETPYLVKLPLPAERVTLADFKGVLQRPSYKFFFKQMDDDFGVVKEEISDDNAKLPCFNGRVVSWLVSA [S47Q] | -0.212 ± 0.086
15 | GETKIIYHLDGQETPYLVKLPLPAERVTLADFKGVLQRPSYKFFFKRMDDDFGVVKEEISDDNAKLPCFNGRVVSWLVSA [S47R] | 0.34 ± 0.039
16 | GETKIIYHLDGQETPYLVKLPLPAERVTLADFKGVLQRPSYKFFFKEMDDDFGVVKEEISDDNAKLPCFNGRVVSWLVSA [S47E] | -0.726 ± 0.12
17 | GETKIIYHLDGQETPYLVKLPLPAERVTLADFKGVLQRPSYKFFFKPMDDDFGVVKEEISDDNAKLPCFNGRVVSWLVSA [S47P] | -0.675 ± 0.14
18 | GETKIIYHLDGQETPYLVKLPLPAERVTLADFKGVLQRPSYKFFFKNMDDDFGVVKEEISDDNAKLPCFNGRVVSWLVSA [S47N] | 0.092 ± 0.11

Row | Variant | abundance fitness
19 | GETKIIYHLDGQETPYLVKLPLPAERVTLADFKGVLQRPSYKFFFKAMDDDFGVVKEEISDDNAKLPCFNGRVVSWLVSA [S47A] | -0.051 ± 0.052
20 | GETKIIYHLDGQETPYLVKLPLPAERVTLADFKGVLQRPSYKFFFKSMHDDFGVVKEEISDDNAKLPCFNGRVVSWLVSA [D49H] | 0.136 ± 0.08
21 | GETKIIYHLDGQETPYLVKLPLPAERVTLADFKGVLQRPSYKFFFKSMFDDFGVVKEEISDDNAKLPCFNGRVVSWLVSA [D49F] | -0.488 ± 0.17
22 | GETKIIYHLDGQETPYLVKLPLPAERVTLADFKGVLQRPSYKFFFKSMADDFGVVKEEISDDNAKLPCFNGRVVSWLVSA [D49A] | 0.018 ± 0.052
23 | GETKIIYHLDGQETPYLVKLPLPAERVTLADFKGVLQRPSYKFFFKSMKDDFGVVKEEISDDNAKLPCFNGRVVSWLVSA [D49K] | 0.203 ± 0.084
24 | GETKIIYHLDGQETPYLVKLPLPAERVTLADFKGVLQRPSYKFFFKSMEDDFGVVKEEISDDNAKLPCFNGRVVSWLVSA [D49E] | -0.038 ± 0.07
25 | GETKIIYHLDGQETPYLVKLPLPAERVTLADFKGVLQRPSYKFFFKSMCDDFGVVKEEISDDNAKLPCFNGRVVSWLVSA [D49C] | 0.013 ± 0.075
26 | GETKIIYHLDGQETPYLVKLPLPAERVTLADFKGVLQRPSYKFFFKSMGDDFGVVKEEISDDNAKLPCFNGRVVSWLVSA [D49G] | -0.046 ± 0.049
27 | GETKIIYHLDGQETPYLVKLPLPAERVTLADFKGVLQRPSYKFFFKSMIDDFGVVKEEISDDNAKLPCFNGRVVSWLVSA [D49I] | -0.231 ± 0.13
28 | GETKIIYHLDGQETPYLVKLPLPAERVTLADFKGVLQRPSYKFFRKSMDDDFGVVKEEISDDNAKLPCFNGRVVSWLVSA [F45R] | -0.669 ± 0.067
29 | GETKIIYHLDGQETPYLVKLPLPAERVTLADFKGVLQRPSYKFFQKSMDDDFGVVKEEISDDNAKLPCFNGRVVSWLVSA [F45Q] | -0.669 ± 0.13
30 | GETKIIYHLDGQETPYLVKLPLPAERVTLADFKGVLQRPSYKFFSKSMDDDFGVVKEEISDDNAKLPCFNGRVVSWLVSA [F45S] | -0.856 ± 0.11
31 | GETKIIYHLDGQETPYLVKLPLPAERVTLADFKGVLQRPSYKFFWKSMDDDFGVVKEEISDDNAKLPCFNGRVVSWLVSA [F45W] | -0.605 ± 0.097
32 | GETKIIYHLDGQETPYLVKLPLPAERVTLADFKGVLQRPSYKFFPKSMDDDFGVVKEEISDDNAKLPCFNGRVVSWLVSA [F45P] | -0.581 ± 0.1
33 | GETKIIYHLDGQETPYLVKLPLPAERVTLADFKGVLQRPSYKFFVKSMDDDFGVVKEEISDDNAKLPCFNGRVVSWLVSA [F45V] | -0.755 ± 0.087
34 | GETKIIYHLDGQETPYLVKLPLPAERVTLADFKGVLQRPSYKFFNKSMDDDFGVVKEEISDDNAKLPCFNGRVVSWLVSA [F45N] | -0.407 ± 0.16
35 | GETKIIYHLDGQETPYLVKLPLPAERVTLADFKGVLQRPSYKFFTKSMDDDFGVVKEEISDDNAKLPCFNGRVVSWLVSA [F45T] | -0.596 ± 0.099
